Test results published in patent publication US20140322825A1 (UNIVERSITY OF MARYLAND BALTIMORE, published 2014).

T1: asialo-glycophorin A (aGPA) (human, UniProt P02724 20-150, desialylated by mild acid treatment; carries O-linked TFα (Galβ1-3GalNAcα) structures; biotinylated in the flow cytometry assays)
T1 construct: The lambody recognises the glycans on this glycoprotein; also called asialo-GPA
T1 sequence (looked up): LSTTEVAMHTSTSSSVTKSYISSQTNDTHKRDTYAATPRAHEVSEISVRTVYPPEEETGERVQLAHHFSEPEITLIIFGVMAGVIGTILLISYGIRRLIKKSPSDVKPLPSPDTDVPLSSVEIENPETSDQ


Key:
[1] = molecular target: T1, asialo-glycophorin A (aGPA); test: SPR (Biacore T200), lambody captured via anti-His mAb, aGPA as analyte, 1:1 Langmuir fit
Method: All SPR binding experiments were performed using Biacore T200 (GE Healthcare). The running and sample buffer was HBS-EP+ (10 mM HEPES, pH 7.4, 150 mM NaCl, 3 mM EDTA, 0.05% Polysorbate 20). All measurements were performed at 25° C. Anti-His antibody (His capture kit, GE Healthcare) was immobilized by amine coupling to Sensor Chip CM5. […] Regeneration of the anti-His surface was accomplished using a 60 second injection of 10 mM glycine-HCl pH 1.5. The reference subtracted SPR binding curves were blank subtracted, and curve fitting was performed with a 1:1 model to obtain kinetic parameters using the Biacore T200 Evaluation software.

[2] = molecular target: T1, asialo-glycophorin A (aGPA); test: SPR (Biacore T200), lambody captured by anti-His mAb, aGPA as analyte at 312 pM to 20 nM, 1:1 Langmuir fit
Method: Reference subtracted and blank subtracted binding data were fitted with a 1:1 Langmuir binding model to determine the association and dissociation constants. The equilibrium dissociation constants were calculated from these values.
(§1) All SPR binding experiments were performed using Biacore T200 (GE Healthcare). The running and sample buffer was HBS-EP+ (10 mM HEPES, pH 7.4, 150 mM NaCl, 3 mM EDTA, 0.05% Polysorbate 20). All measurements were performed at 25° C. Anti-His antibody (His capture kit, GE Healthcare) was immobilized by amine coupling to Sensor Chip CM5. VLRB.aGPA.23 and Mut.10 were diluted to 10 μg/mL and injected in each cycle at 10 μL/min for 30 seconds, to capture approximately 300 RU. […] Regeneration of the anti-His surface was accomplished using a 60 second injection of 10 mM glycine-HCl pH 1.5. The reference subtracted SPR binding curves were blank subtracted, and curve fitting was performed with a 1:1 model to obtain kinetic parameters using the Biacore T200 Evaluation software.

[3] = molecular target: T1, asialo-glycophorin A (aGPA); test: SPR (Biacore T200), lambody captured via anti-His mAb, aGPA as analyte
Method: as §1

Row | Kd [1] [nM] | Kd [2] [nM] | koff [2] [s⁻¹] | kon [2] [M⁻¹ s⁻¹] | fold higher affinity than VLRB.aGPA.23 [3] [fold] | Binder
1 | 1.1 | 1.09 | 0.000331 | 303000 | – | lambody VLRB.aGPA.23 (as used in SPR) (other, Dimeric, yeast-secreted lambody captured on the chip through an anti-His antibody; also called VLRB.GPA.23; not shown: 6-His and FLAG tags plus a dimerization domain) ACPSQCSCSGTEVNCAGKSLASVPAGIPTTTRVLYLNSNQITKLEPGVFDRLANLRELHLWGNQLVSLPPGVFDNLANLEKLWLNSNQLTSLPAGLFDRLVNLEHLGLCCMKLTELPSGAFDKLTRLKQLGLDQNQLKSIPDGAFARLPSLTHVWLHTNPWDCQCTDILYLSGWVAQHSSIVGEGWPWRHSPDSAKCSGTNTPVRAVTEASTSPSKCP
2 | – | 0.637 | 0.000222 | 349000 | 1.7 | Mut.10 (affinity-improved clone of VLRB.aGPA.23) (other, also called clone Mut.10; not shown: 6-His and FLAG tags plus a dimerization domain) ACPSQCSCSGTEVNCAGKNLASVPAGIPTTTRVLYLNSNQITKLEPGVFDRLANLRELHLWGNQLVSLPPGVFDNLANLEKLWLNGNQLTSLPAGLFDRLVNLERLGLCCMMLTELPSGAFDKLTRLKQLGLDQNQLKSIPDGAFARLPSLTHVWLHTNPWDCQCTDILYLSGWVAQHSSIVGEGWPWRHSPDSAKCSGTNTPVRAVSEASTSPSKCP
